The text below walks through data of patent US12570711B2, “Platforms for co-stimulation, novel car designs and other enhancements for adoptive cellular therapy” (Angeles Therapeutics, Inc., priority 2017, dated 2026).

The target in the series is T1, CD19 (Homo sapiens, UniProt P15391).
T1 construct: endogenous in cells; host or cells: RAJI cells in vitro
T1 sequence (P15391 20-556): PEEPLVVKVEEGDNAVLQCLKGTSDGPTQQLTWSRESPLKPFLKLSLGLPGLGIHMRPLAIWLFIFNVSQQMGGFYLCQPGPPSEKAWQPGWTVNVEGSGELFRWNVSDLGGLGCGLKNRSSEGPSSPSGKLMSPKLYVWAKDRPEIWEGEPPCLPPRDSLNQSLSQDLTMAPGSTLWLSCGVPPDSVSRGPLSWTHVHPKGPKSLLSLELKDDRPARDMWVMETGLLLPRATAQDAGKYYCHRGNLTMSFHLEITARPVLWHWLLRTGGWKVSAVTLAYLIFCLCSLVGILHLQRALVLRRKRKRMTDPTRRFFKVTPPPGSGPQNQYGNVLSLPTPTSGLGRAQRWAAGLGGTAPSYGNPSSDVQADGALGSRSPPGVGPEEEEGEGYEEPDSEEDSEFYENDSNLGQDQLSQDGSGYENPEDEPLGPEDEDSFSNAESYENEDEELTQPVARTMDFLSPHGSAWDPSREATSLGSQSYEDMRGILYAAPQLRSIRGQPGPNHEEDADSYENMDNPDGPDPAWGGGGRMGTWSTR
Description: Jurkat-NFAT-EGFP (J-N-G) reporter: EGFP induction upon co-culture with RAJI cells. Format: cell-based. The conditions noted are these: co-culture with CD19+ve RAJI cells, compared to wild-type EF1α promoter. The text has this:
Jurkat cell line (clone E6-1) engineered with a NFAT-dependent EGFP (or GFP) reporter gene was a gift from Dr. Arthur Weiss at University of California San Francisco and have been described to study CAR-signaling ((Wu, C Y et al., Science 350:293-302, 2015). Jurkat cells were maintained in RPMI-1640 medium supplemented with 10% FBS, penicillin and streptomycin.
Use of strong viral promoters in adoptive cellular therapy applications carries the risk of activation of downstream oncogenes and development of cancer. As such, human Elongation Factor 1α (EF1α) promoter is frequently used in adoptive cellular therapy applications as it provides strong expression and is human in origin. A limitation of EF1α promoter, however, is its relatively large size. Although a mini-EF1α promoter has been described, it is much weaker as compared to the EF1α promoter. To determine whether an internal deletion in the EF1α promoter would allow shortening of its length while preserving its promoter strength, a SacII fragment was deleted from the EF1α promoter. […] The vectors also co-expressed EGFP and blasticidin resistance gene via 2A linkers. Lentiviruses were generated in 293FT cells and used to infect J-N-G cells.

B1: EF1α-D-SacII promoter: EF1α promoter from which an internal SacII fragment was deleted (nucleic acid)
DNA: GTGAGGCTCCGGTGCCCGTCAGTGGGCAGAGCGCACATCGCCCACAGTCCCCGAGAAGTTGGGGGGAGGGGTCGGCAATTGAACCGGTGCCTAGAGAAGGTGGCGCGGGGTAAACTGGGAAAGTGATGTCGTGTACTGGCTCCGCCTTTTTCCCGAGGGTGGGGGAGAACCGTATATAAGTGCAGTAGTCGCCGTGAACGTTCTTTTTCGCAACGGGTTTGCCGCCAGAACACAGGTAAGTGCCGTGTGTGGTTCCCGCGGGCGGCGACGGGGCCCGTGCGTCCCAGCGCACATGTTCGGCGAGGCGGGGCCTGCGAGCGCGGCCACCGAGAATCGGACGGGGGTAGTCTCAAGCTGGCCGGCCTGCTCTGGTGCCTGGCCTCGCGCCGCCGTGTATCGCCCCGCCCTGGGCGGCAAGGCTGGCCCGGTCGGCACCAGTTGCGTGAGCGGAAAGATGGCCGCTTCCCGGCCCTGCTGCAGGGAGCTCAAAATGGAGGACGCGGCGCTCGGGAGAGCGGGCGGGTGAGTCACCCACACAAAGGAAAAGGGCCTTTCCGTCCTCAGCCGTCGCTTCATGTGACTCCACGGAGTACCGGGCGCCGTCCAGGCACCTCGATTAGTTCTCGACCTTTTGGAGTACGTCGTCTTTAGGTTGGGGGGAGGGGTTTTATGCGATGGAGTTTCCCCACACTGAGTGGGTGGAGACTGAAGTTAGGCCAGCTTGGCACTTGATGTAATTCTCCTTGGAATTTGCCCTTTTTGAGTTTGGATCTTGGTTCATTCTCAAGCCTCAGACAGTGGTTCAAAGTTTTTTTCTTCCATTTCAGGTGTCGTGA
Consider B1, for which the “induction of EGFP expression by FMC63-BBz CAR” value was “Near equivalent inducton of EGFP expression”.
